Molecular target: T1, human CCR8 (human, UniProt P51685 1-355)
T1 construct: the assay field says which; also called hCCR8; huCCR8
Test: flow cytometry, CHO-huCCR8.Gna15 cells, relative to rb.Ab5
Protocol: Evaluation of CCR8 binding of the humanized variants with a hIgG1 Fc involved screening by flow cytometry, and comparing the relative EC₅₀ and MFI on human CCR8 CHO cells to the parental rabbit antibodies. Specifically, stable CHO-huCCR8.Gna15 cells were stained with various concentrations (starting from 10 ug/ml or 66.66 nM, 1:4 serial dilution for total 8 concentration points) of Ab4 and Ab5 variants at 4° C. for 30 minutes, then washed twice with FACS buffer (PBS with 0.5% BSA and 0.2 mM EDTA) and followed by staining with AF647-anti-hIgG at 4° C. for 15 min. Cells were washed twice with FACS buffer, and re-suspended in FACS buffer with propidium iodide (0.5 ug/ml) and analyzed with iQue3 (Sartorius).

Binder | Relative EC50 | Relative MFI
hu.Ab5.H2L1 (antibody, human IgG1, kappa) heavy: not shown light: DIQVTQSPSSLSASVGDRVTITCQASENIANALAWYQQKPGKPPKFLIYGASNLASGVPSRFSGSGSGTDFTFTISSLQPEDIATYYCQQAYYGNSFVEGTFGGGTKVEIKRTVAAPSVFIFPPSDEQLKSGTASVVCLLNNFYPREAKVQWKVDNALQSGNSQESVTEQDSKDSTYSLSSTLTLSKADYEKHKVYACEVTHQGLSSPVTKSFNRGEC | 1.1 ratio | 0.93 ratio
hu.Ab5.H3L1 (antibody, human IgG1, kappa, V domains shown) VH: EQQLLESGGGLVQPGGSLRLSCAASGIDLSTYAMGWVRQAPGKGLEWIGLIHRSGRTYYATWAKGRFTISKDSSKTTVYLQMNSLRAEDTAVYFCTRSYPDYSATASIWGPGTTVTVSS VL: DIQVTQSPSSLSASVGDRVTITCQASENIANALAWYQQKPGKPPKFLIYGASNLASGVPSRFSGSGSGTDFTFTISSLQPEDIATYYCQQAYYGNSFVEGTFGGGTKVEIKR | 1.5 ratio | 1 ratio
hu.Ab5.H4L1 (antibody, human IgG1, kappa, V domains shown) VH: EQQLLESGGGLVQPGGSLRLSCAVSGIDLSTYAMGWVRQAPGKGLEWVGLIHRSGRTYYATWAKGRFTISKDSSKTTVYLQMNSLRAEDTAVYFCTRSYPDYSATASIWGPGTTVTVSS VL: DIQVTQSPSSLSASVGDRVTITCQASENIANALAWYQQKPGKPPKFLIYGASNLASGVPSRFSGSGSGTDFTFTISSLQPEDIATYYCQQAYYGNSFVEGTFGGGTKVEIKR | 1.5 ratio | 0.95 ratio
hu.Ab5.H5L1 (antibody, human IgG1, kappa, V domains shown) VH: EQQLLESGGGLVQPGGSLRLSCAVSGIDLSTYAMGWVRQAPGKGLEWISLIHRSGRTYYATWAKGRFTISKDSSKTTVYLQMNSLRAEDTAVYFCTRSYPDYSATASIWGPGTTVTVSS VL: DIQVTQSPSSLSASVGDRVTITCQASENIANALAWYQQKPGKPPKFLIYGASNLASGVPSRFSGSGSGTDFTFTISSLQPEDIATYYCQQAYYGNSFVEGTFGGGTKVEIKR | 7.6 ratio | 0.35 ratio
hu.Ab5.H6L1 (antibody, human IgG1, kappa, V domains shown) VH: EQQLLESGGGLVQPGGSLRLSCAVSGIDLSTYAMGWVRQAPGKGLEWIGLIHRSGRTYYATWAKGRFTISRDSSKTTVYLQMNSLRAEDTAVYFCTRSYPDYSATASIWGPGTTVTVSS VL: DIQVTQSPSSLSASVGDRVTITCQASENIANALAWYQQKPGKPPKFLIYGASNLASGVPSRFSGSGSGTDFTFTISSLQPEDIATYYCQQAYYGNSFVEGTFGGGTKVEIKR | 2.4 ratio | 0.97 ratio
hu.Ab5.H7L1 (antibody, human IgG1, kappa, V domains shown) VH: EQQLLESGGGLVQPGGSLRLSCAVSGIDLSTYAMGWVRQAPGKGLEWIGLIHRSGRTYYATWAKGRFTISKDNSKTTVYLQMNSLRAEDTAVYFCTRSYPDYSATASIWGPGTTVTVSS VL: DIQVTQSPSSLSASVGDRVTITCQASENIANALAWYQQKPGKPPKFLIYGASNLASGVPSRFSGSGSGTDFTFTISSLQPEDIATYYCQQAYYGNSFVEGTFGGGTKVEIKR | 2.2 ratio | 0.96 ratio
hu.Ab5.H8L1 (antibody, human IgG1, kappa, V domains shown) VH: EQQLLESGGGLVQPGGSLRLSCAVSGIDLSTYAMGWVRQAPGKGLEWIGLIHRSGRTYYATWAKGRFTISKDSSKNTVYLQMNSLRAEDTAVYFCTRSYPDYSATASIWGPGTTVTVSS VL: DIQVTQSPSSLSASVGDRVTITCQASENIANALAWYQQKPGKPPKFLIYGASNLASGVPSRFSGSGSGTDFTFTISSLQPEDIATYYCQQAYYGNSFVEGTFGGGTKVEIKR | 1.4 ratio | 0.94 ratio
hu.Ab5.H9L1 (antibody, human IgG1, kappa, V domains shown) VH: EQQLLESGGGLVQPGGSLRLSCAVSGIDLSTYAMGWVRQAPGKGLEWIGLIHRSGRTYYATWAKGRFTISKDSSKTTLYLQMNSLRAEDTAVYFCTRSYPDYSATASIWGPGTTVTVSS VL: DIQVTQSPSSLSASVGDRVTITCQASENIANALAWYQQKPGKPPKFLIYGASNLASGVPSRFSGSGSGTDFTFTISSLQPEDIATYYCQQAYYGNSFVEGTFGGGTKVEIKR | 1.3 ratio | 0.92 ratio

Source: US20230049152A1 (Genentech, published 2023)
